Assay [1] deals with human IL-23 receptor on HEK-Blue IL-23 cells (human) (UniProt Q5VWK5).
Assay [2] deals with T1, human IL-23 p19 (aa20-189) (human, UniProt Q9NPF7 20-189).
T1 construct: human IL-23 p19 subunit, aa20-189, ORF in the mammalian expression vector pRS5a, untagged; The stated range lacks the protein's own signal peptide, yet the protein is secreted; also called IL-23A-p19; source: HEK293FT, transfected (pRS5a-IL23p19), in concentrated supernatant
T1 sequence (looked up): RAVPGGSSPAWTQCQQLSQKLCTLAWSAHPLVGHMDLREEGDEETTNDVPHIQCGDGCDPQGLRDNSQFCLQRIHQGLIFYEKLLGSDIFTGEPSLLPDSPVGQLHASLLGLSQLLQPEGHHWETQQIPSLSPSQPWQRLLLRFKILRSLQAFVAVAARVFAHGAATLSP
The experiment in a line: ELISA; sandwich: plate coated with anti-p19 antibody, concentrated supernatants of p19 and EBI3-His transfected HEK293FT cells 2 hrs at room temperature, detection with biotinylated EBI3 antibody and HRP-Avidin. The following applies: partners not purified.

This note sets out measurements from publication PMC7707563, “Lack of evidence for expression and function of IL-39 in human immune cells” (PLoS ONE, 2020).

human IL-23 receptor on HEK-Blue IL-23 cells (human), sequence (Q5VWK5 24-629): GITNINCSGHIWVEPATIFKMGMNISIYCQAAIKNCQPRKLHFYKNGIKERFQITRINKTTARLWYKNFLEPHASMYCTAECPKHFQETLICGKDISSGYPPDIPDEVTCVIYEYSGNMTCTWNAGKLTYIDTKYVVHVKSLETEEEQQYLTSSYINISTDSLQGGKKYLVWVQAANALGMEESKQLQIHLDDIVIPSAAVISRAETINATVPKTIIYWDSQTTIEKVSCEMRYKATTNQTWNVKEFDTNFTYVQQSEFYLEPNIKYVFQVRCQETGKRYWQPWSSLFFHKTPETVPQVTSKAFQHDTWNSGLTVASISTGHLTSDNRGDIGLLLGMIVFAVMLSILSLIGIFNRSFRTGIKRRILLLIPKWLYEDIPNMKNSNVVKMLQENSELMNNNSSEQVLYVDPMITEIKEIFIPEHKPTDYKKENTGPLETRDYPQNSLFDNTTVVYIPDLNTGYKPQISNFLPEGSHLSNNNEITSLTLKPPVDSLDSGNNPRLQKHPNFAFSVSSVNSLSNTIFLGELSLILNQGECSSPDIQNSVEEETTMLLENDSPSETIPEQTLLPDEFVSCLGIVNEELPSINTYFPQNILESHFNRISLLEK

The molecule “recombinant human IL-23 (from UniProt Q9NPF7 20-189; P29460 23-328) (complex)” registered an STAT3 activity (SEAP reporter) over background in HEK-Blue IL-23 cells, various concentrations of IL-23, concentration-dependent; number printed for 2 pM IL-23 in assay [1] of 2.5 fold.

B1: C-terminally 10 x His-tagged EBI3 (natural protein, human, UniProt Q14213 21-229, looked up)
chain: RKGPPAALTLPRVQCRASRYPIAVDCSWTLPPAPNSTSPVSFIATYRLGMAARGHSWPCLQQTPTSTSCTITDVQLFSMAPYVLNVTAVHPWGSSSSFVPFITEHIIKPDPPEGVRLSPLAERQLQVQWEPPGSWPFPEIFSLKYWIRYKRQGAARFHRVGPIEATSFILRAVRPRARYYVQVAAQDLTDYGELSDWSLPATATMSLGK
notes: human Epstein-Barr Virus-induced 3 (EBI3), aa21-229, ORF in the mammalian expression vector pRS5a; The limits aa21-229 are printed for EBI3; also called EBI3-His; His-EBI3; source: HEK293FT, transfected (pRS5a-EBI3-His10), in concentrated supernatant; not shown: His10, C-terminal, kept
Take B1: in assay [2], the “fold increase in optical density against supernatants of mock or single transfected cells” value is roughly 2.5 fold.
